Measurements taken from patent publication US20040152193A1 (LUDWIG INSTITUTE FOR CANCER RESEARCH, published 2004).

How the values were obtained:
[1] = biological target: HLA-A*0201 (human); assay: cell-based or functional assay
[2] = biological target: HLA-A*0201 (human); assay: cell-based or functional assay; remark: listed apart in the source

EVDPIGHLY [MAGE-3 TRAP 168-176 peptide EVDPIGHLY]
Competitor [µM] 50% [1]: > 100 µM
Relative competitor activity [1]: < 0.6 ratio to SEQ ID NO: 2

ILTVILGVL [Melan-A 32-40 nonapeptide ILTVILGVL]
Relative Competitor Activity, Exp3 [2]: 2 ratio to SEQ ID NO: 2
